Patent US20240216536

What was measured:
[1] = biological target: T1, His-S5A substrate (E6AP Ubiquitin Ligase Kit-S5a Substrate, Boston Biochem #K-230), P55036
T1 chain: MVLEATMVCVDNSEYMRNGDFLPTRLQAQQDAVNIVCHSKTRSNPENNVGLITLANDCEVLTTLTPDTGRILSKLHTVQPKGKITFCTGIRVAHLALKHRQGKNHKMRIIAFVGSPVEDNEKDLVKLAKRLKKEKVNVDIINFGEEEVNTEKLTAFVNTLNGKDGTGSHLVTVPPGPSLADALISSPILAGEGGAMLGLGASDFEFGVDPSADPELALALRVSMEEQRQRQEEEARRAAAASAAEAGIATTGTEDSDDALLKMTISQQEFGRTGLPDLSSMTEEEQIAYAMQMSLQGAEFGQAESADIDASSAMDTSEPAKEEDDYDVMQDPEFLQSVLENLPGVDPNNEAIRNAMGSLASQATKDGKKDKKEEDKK

B1: rat UBE3A protein (endogenous, from wild type rat cerebrospinal fluid and hippocampal dialysate) (protein)
chain: MATACKRSSGESQSEDIEASRMKRAAAKHLIERYYHQLTEGCGNEACTNEFCASCPTFLRMDNNAAAIKALELYKINAKLCDPHPSKKGASSAYLENSKGASNNSEIKMNKKEEFKEVDYLTEEKVYEIYEFCREREDYSPLIRVIGRIFSSAEALVQSFRKVKQHTKEELKSLQEKDEDKDEDEKEKAACSAAAMEEDSEASSSRMGDSSQGDNNVQKLGPDDVTVDIDAIRRVYSSLLSDEKIETAFLNALVYLSPNVECDLTYHNVYTRDPNYLNLFIIVMENRNLHSPEYLEMALPLFCKAMSKLPLAAQGKLIRLWSKYSADQIRRMMETFQQLITYKVISNEFNSRNLVNDDDAIVAASKCLKMVYYANVVGGDVDTNHNEEDDEEPIPESSELTLQELLGEERRNKKGPRVDPLETEIGVKTLDCRKPLISFEEFINEPLNDVLEMDKDYTFFKVETENKFSFMTCPFILNAVTKNLGLYYDNRIRMYSERRITVLYSLVQGQQLNPYLRLKVRRDHIIDDALVRLEMIAMENPADLKKQLYVEFEGEQGVDEGGVSKEFFQLVVEEIFNPDIGMFTYDEATRLFWFNPSSFETEGQFTLIGIVLGLAIYNNCILDVHFPMVVYRKLMGKKGTFCDLGDSHPILYQSLKDLLEYEGNVEDDMMITFQISQTDLFGNPMMYDLKENGDKIPITNENRKEFVSLYSDYILNKSVEKQFKAFRRGFHMVTNESPLKYLFRPEEIELLICGSRNLDFQALEETTEYDGGYTRESVVIREFWEIVHSFTDEQKRLFLQFTTGTDRAPVGGLGKLKMIIAKNGPDTERLPTSHTCFNVLLLPEYSSKEKLKERLLKAITYAKGFGML
For B1, the “ubiquitination assay western blot (self-ubiquitination of UBE3A)” value was “the UBE3A protein present in both the CSF and hippocampal dialysate were active in ubiquitinating both the S5A substrate and UBE3A”, the “ubiquitination assay western blot (S5A band shift over time)” value [1] was “the UBE3A protein present in both the CSF and hippocampal dialysate were active in ubiquitinating both the S5A substrate and UBE3A” and the “ubiquitination assay western blot after immuno-depletion of UBE3A (S5A band intensity)” value [1] was “With UBE3A protein immuno-precipitated, UBE3A protein was not detected and the S5A band intensity remained unchanged over time”.
